In patent publication US20130108602A1, “METHODS AND USES OF NUR77 AND NUR77 AGONISTS TO MODULATE MACROPHAGES AND MONOCYTES, AND TREAT INFLAMMATION, INFLAMMATORY DISEASE AND CARDIOVASCULAR DISEASE” (LA JOLLA INSTITUTE FOR ALLERGY AND IMMUNOLOGY, priority 2010, published 2013):

Tests used:
Nur77 mRNA = assay: Nur77 (NR4A1) mRNA by real-time RT-PCR in human monocyte-derived macrophages; assay type: cell-based
Nur77 protein = Nur77 protein staining in primary human monocyte-derived macrophages; assay type: cell-based; details: at 24 hours, Gal-3BP 10 μg/ml

B1: Gal-3BP: recombinant human galectin-3 binding protein (R&D) (protein, UniProt Q08380 19-585, looked up)
Galectin-3-binding protein: VNDGDMRLADGGATNQGRVEIFYRGQWGTVCDNLWDLTDASVVCRALGFENATQALGRAAFGQGSGPIMLDEVQCTGTEASLADCKSLGWLKSNCRHERDAGVVCTNETRSTHTLDLSRELSEALGQIFDSQRGCDLSISVNVQGEDALGFCGHTVILTANLEAQALWKEPGSNVTMSVDAECVPMVRDLLRYFYSRRIDITLSSVKCFHKLASAYGARQLQGYCASLFAILLPQDPSFQMPLDLYAYAVATGDALLEKLCLQFLAWNFEALTQAEAWPSVPTDLLQLLLPRSDLAVPSELALLKAVDTWSWGERASHEEVEGLVEKIRFPMMLPEELFELQFNLSLYWSHEALFQKKTLQALEFHTVPFQLLARYKGLNLTEDTYKPRIYTSPTWSAFVTDSSWSARKSQLVYQSRRGPLVKYSSDYFQAPSDYRYYPYQSFQTPQHPSFLFQDKRVSWSLVYLPTIQSCWNYGFSCSSDELPVLGLTKSGGSDRTIAYENKALMLCEGLFVADVTDFEGWKAAIPSALDTNSSKSTSSFPCPAGHFNGFRTVIRPFYLTNSSGVD
- time of peak Nur77 mRNA expression after addition (Nur77 mRNA; M-CSF-derived human macrophages (M0), Gal-3BP 10 μg/ml): 48 h
- NUR77 mRNA increase (Nur77 mRNA; M-CSF-derived human macrophages (M0), Gal-3BP 10 μg/ml, 0-72 hours, two independent studies): 3-4 fold
- NR4A1 expression induction (Nur77 mRNA; human primary macrophages, 6 hours after Gal-3BP, normalized to t=0, n=3): more than 6 fold
- Nur77 protein compared to control (Nur77 protein): massively increased
